Source: patent US20190062438A1 (CSL, published 2019)
Numbering of substitutions follows the chain as printed.

T1: human CD131 (human, UniProt P32927 17-897)
T1 sequence: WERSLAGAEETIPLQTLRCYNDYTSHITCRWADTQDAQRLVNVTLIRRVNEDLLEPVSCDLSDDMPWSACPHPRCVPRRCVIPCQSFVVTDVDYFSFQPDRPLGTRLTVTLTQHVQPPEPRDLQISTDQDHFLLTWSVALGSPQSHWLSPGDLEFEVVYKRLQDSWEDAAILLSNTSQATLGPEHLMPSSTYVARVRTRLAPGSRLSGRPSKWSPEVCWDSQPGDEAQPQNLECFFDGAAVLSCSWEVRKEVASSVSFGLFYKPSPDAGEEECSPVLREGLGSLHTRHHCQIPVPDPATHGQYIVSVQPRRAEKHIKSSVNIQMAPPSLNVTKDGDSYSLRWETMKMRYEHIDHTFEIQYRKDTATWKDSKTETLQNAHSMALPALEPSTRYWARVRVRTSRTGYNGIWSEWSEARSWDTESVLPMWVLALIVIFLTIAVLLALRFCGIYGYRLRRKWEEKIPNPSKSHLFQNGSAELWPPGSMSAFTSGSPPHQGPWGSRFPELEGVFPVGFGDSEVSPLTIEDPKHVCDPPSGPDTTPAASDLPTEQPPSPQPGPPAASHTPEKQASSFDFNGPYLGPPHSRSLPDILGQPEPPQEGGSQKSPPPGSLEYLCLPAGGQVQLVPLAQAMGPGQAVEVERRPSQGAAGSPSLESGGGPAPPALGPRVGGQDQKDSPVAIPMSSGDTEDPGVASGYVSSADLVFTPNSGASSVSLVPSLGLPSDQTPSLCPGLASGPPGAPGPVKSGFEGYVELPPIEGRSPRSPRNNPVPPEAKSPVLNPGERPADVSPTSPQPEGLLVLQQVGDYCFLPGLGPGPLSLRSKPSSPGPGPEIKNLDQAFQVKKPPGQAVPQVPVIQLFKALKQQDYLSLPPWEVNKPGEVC

B1: 9A2-VR24.07 (antibody, V domains shown)
VH: EVQLLESGGGLVQPGGSLRLSCAASGFTFPWYRVHWVRQAPGKGLEWVSSIHTHRNSTYYADSVKGRFTISRDNSKNTLYLQMNSLRAEDTAVYYCARFYDSFFDIWGQGTMVTVSS
VL: DIQMTQSPSSVSASVGDRVTITCRASQGISSWLAWYQQKPGKAPKLLIYAASSLQSGVPSRFSGSGSGTDFTLTISSLQPEDFATYYCQQANSFPITFGQGTRLEIKR
B2: 9A2-VR24.97 (antibody, V domains shown)
VH: B1 VH with H52R, T53S, H54S, R55G, N56G, S57F, T58P, A61S, D62L
VL: B1 VL
B3: 9A2-VR24.110 (antibody, V domains shown)
VH: B1 VH with H52R, T53S, H54S, R55G, N56G, S57F, T58P, A61N, D62N, S63H
VL: B1 VL
B4: 9A2-VR24.24 (antibody, V domains shown)
VH: B1 VH with H52R, H54D, R55G, N56T, S57W
VL: B1 VL
B5: 9A2-VR24.55 (antibody, V domains shown)
VH: B1 VH with H52R, T53S, H54S, R55G, N56G, S57F, A61N, D62P, G66N
VL: B1 VL
B6: 9A2-VR39.12 (antibody, V domains shown)
VH: EVQLLESGGGLVQPGGSLRLSCAASGFTFFWFNTVWVRQAPGKGLEWVSSINGRGRVTYYADSVKGRFTISRDNSKNTLYLQMNSLRAEDTAVYYCARFYDSFFDIWGQGTMVTVSS
VL: B1 VL
B7: 9A2-VR24.84 (antibody, V domains shown)
VH: B1 VH with N56P, S57W
VL: B1 VL
B8: 9A2-VR24.122 (antibody, V domains shown)
VH: B1 VH with H52R, T53S, H54S, R55G, N56G, S57F, A61N, D62S, S63E
VL: B1 VL
B9: 9A2-VR24.10 (antibody, V domains shown)
VH: B1 VH with H54G, R55S, N56Q, S57W
VL: B1 VL
B10: 9A2-VR24.33 (antibody, V domains shown)
VH: B1 VH with H52R, T53S, H54S, R55G, N56G, S57F, T58P, A61N, D62H, S63K
VL: B1 VL
B11: 9A2-VR24.131 (antibody, V domains shown)
VH: B1 VH with H52R, T53S, H54S, R55G, N56G, S57F, A61N, D62P, K65M
VL: B1 VL
B12: 9A2-VR39.11 (antibody, V domains shown)
VH: B6 VH with F30Q, W31E, N33H, V35I
VL: B1 VL
B13: 9A2-VR24.27 (antibody, V domains shown)
VH: B1 VH with H52R, T53S, H54S, R55G, N56G, S57F, T58P, A61H, D62Q, S63K
VL: B1 VL
B14: 9A2-VR24.19 (antibody, V domains shown)
VH: B1 VH with H54Q, R55S, N56K, S57W
VL: B1 VL
B15: 9A2-VR24.93 (antibody, V domains shown)
VH: B1 VH with H52R, T53N, H54E, R55N, N56G, S57W
VL: B1 VL
B16: 9A2-VR24.82 (antibody, V domains shown)
VH: B1 VH with H52K, T53H, H54G, R55G, N56R, S57Y
VL: B1 VL
B17: 9A2-VR24.30 (antibody, V domains shown)
VH: B1 VH with H52R, T53S, H54S, R55G, N56G, S57F, T58P, A61N, D62R, S63R
VL: B1 VL
B18: 9A2-VR39.01 (antibody, V domains shown)
VH: B6 VH with N33H, T34H
VL: B1 VL
B19: 9A2-VR24.44 (antibody, V domains shown)
VH: B1 VH with H52R, T53S, H54S, R55G, N56G, S57F, T58P, A61H, D62P
VL: B1 VL
B20: 9A2-VR24.107 (antibody, V domains shown)
VH: B1 VH with H52R, T53S, H54S, R55G, N56G, S57F, T58P, A61N, D62P, S63F
VL: B1 VL
B21: 9A2-VR24.12 (antibody, V domains shown)
VH: B1 VH with R55Y, N56Q, S57Y
VL: B1 VL
B22: 9A2-VR39.06 (antibody, V domains shown)
VH: B6 VH with F30Q, F32Y, N33H, T34Y, V35I
VL: B1 VL
B23: 9A2-VR24.78 (antibody, V domains shown)
VH: B1 VH with S57Y
VL: B1 VL
B24: 9A2-VR24.81 (antibody, V domains shown)
VH: B1 VH with S57Y
VL: B1 VL
B25: 9A2-VR24.76 (antibody, V domains shown)
VH: B1 VH with H52Q, R55G, N56V, S57W
VL: B1 VL
B26: 9A2-VR24.91 (antibody, V domains shown)
VH: B1 VH with N56Q, S57V
VL: B1 VL
B27: 9A2-VR24.57 (antibody, V domains shown)
VH: B1 VH with H52R, T53S, H54S, R55G, N56G, S57F, A61N, D62P, S63K, G66H
VL: B1 VL
B28: 9A2-VR24.111 (antibody, V domains shown)
VH: EVQLLESGGGLVQPGGSLRLSCAASGFTFPWYRVHWVRQAPGKGLEWVSSIRSSGGFPMYNPHVKGRFTISRDNSKNTLYLQMNSLRAEDTAVYYCARFYDSFFDIWGQGTMVTVSS
VL: B1 VL
B29: 9A2-VR39.02 (antibody, V domains shown)
VH: B6 VH with F30Y, F32Y, N33H, T34M, V35I
VL: B1 VL
B30: 9A2-VR24.98 (antibody, V domains shown)
VH: B28 VH with M59H, P62S, H63V
VL: B1 VL
B31: 9A2-VR24.124 (antibody, V domains shown)
VH: B28 VH with P58T, M59Y, N61T, H63S, K65R
VL: B1 VL
B32: 9A2-VR24.87 (antibody, V domains shown)
VH: B1 VH with R55S, N56D, S57W
VL: B1 VL
B33: 9A2-VR39.04 (antibody, V domains shown)
VH: B6 VH with F30N, N33Q, T34H, V35I
VL: B1 VL
B34: 9A2-VR24.56 (antibody, V domains shown)
VH: B28 VH with P58T, M59Y, H63A, K65R
VL: B1 VL
B35: 9A2-VR39.05 (antibody, V domains shown)
VH: B6 VH with F30P, N33H
VL: B1 VL
B36: 9A2-VR39.16 (antibody, V domains shown)
VH: B6 VH with F30Q, T34I
VL: B1 VL
B37: 9A2-VR24.102 (antibody, V domains shown)
VH: B28 VH with M59F, P62S, H63S
VL: B1 VL

Target: T1, human CD131
Experiment: cell-based or functional assay

Binder	IC50 GM-CSF, TF-1 proliferation
B1	1.17 nM
B2	0.16 nM
B3	0.24 nM
B4	1.09 nM
B5	0.6 nM
B6	25.1 nM
B7	0.21 nM
B8	0.66 nM
B9	9.52 nM
B10	0.34 nM
B11	1.06 nM
B12	18.6 nM
B13	0.25 nM
B14	0.98 nM
B15	0.92 nM
B16	3.99 nM
B17	0.25 nM
B18	0.51 nM
B19	0.4 nM

Binder	IC50 GM-CSF, TF-1 proliferation
B20	0.3 nM
B21	0.93 nM
B22	1.85 nM
B23	0.65 nM
B24	0.48 nM
B25	12.4 nM
B26	0.5 nM
B27	0.33 nM
B28	0.42 nM
B29	0.46 nM
B30	0.25 nM
B31	0.54 nM
B32	2.37 nM
B33	30.4 nM
B34	0.48 nM
B35	0.96 nM
B36	6.07 nM
B37	0.32 nM
